Results published in publication PMC11035769.

Target: CD16a-His (human) (UniProt P08637)
Assay: BLI; CD16a-His (250 ng/mL) immobilised on HIS1K biosensors; analytes at 3200 - 50 nM or 400 - 6.25 nM; 1X kinetics buffer (PBS pH 7.4, 0.02% Tween-20, 0.1% bovine serum albumin); 300 s association, 600 s dissociation; 1:1 fitting model; geometric means

UniProt P08637, sequence (P08637 17-208): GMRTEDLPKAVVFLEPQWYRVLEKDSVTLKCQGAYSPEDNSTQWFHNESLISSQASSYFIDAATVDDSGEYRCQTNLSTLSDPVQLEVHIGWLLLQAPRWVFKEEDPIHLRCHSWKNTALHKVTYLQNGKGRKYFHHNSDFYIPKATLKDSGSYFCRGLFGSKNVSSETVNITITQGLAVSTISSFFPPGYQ

**Q.** For “Immune Globulin Intravenous (Human) (antibody)”, which Kd is on record?
**A.** 0.244 µM

**Q.** What about the koff of the same substance?
**A.** 0.0402 s⁻¹

**Q.** What about the kon of the same substance?
**A.** 165000 M⁻¹ s⁻¹
